According to patent US6537785:

Tests used:
RNAse B = RNAse B (UniProt P61823)
uteroferrin = uteroferrin (UniProt P09889)
UniProt P09889, sequence (P09889 22-340): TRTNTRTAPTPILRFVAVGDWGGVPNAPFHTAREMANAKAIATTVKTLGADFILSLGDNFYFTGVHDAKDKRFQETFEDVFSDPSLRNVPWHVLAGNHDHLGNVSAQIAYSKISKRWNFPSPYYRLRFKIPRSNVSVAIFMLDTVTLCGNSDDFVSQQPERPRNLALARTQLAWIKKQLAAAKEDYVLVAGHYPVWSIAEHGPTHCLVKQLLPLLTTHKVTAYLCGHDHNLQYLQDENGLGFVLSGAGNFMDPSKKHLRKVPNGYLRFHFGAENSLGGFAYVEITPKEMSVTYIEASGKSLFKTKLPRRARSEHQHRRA

UniProt P61823, sequence (P61823 27-150): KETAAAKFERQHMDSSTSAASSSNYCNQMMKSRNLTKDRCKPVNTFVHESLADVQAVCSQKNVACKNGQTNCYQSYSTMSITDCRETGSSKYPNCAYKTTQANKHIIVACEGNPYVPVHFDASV

Question: Which results are given for “bovine GlcNAc-phosphotransferase (UDP-N-acetylglucosamine: lysosomal enzyme N-Acetylglucosamine-1-phosphotransferase)”?
Answer: Km (transfer of GlcNAc-1-P to glycoprotein acceptor) (cathepsin D): Kms below 20 µM; Km (transfer of GlcNAc-1-P to glycoprotein acceptor) (RNAse B): the Km was not reached at the solubility limit of the protein (at 600 µM); Km (transfer of GlcNAc-1-P to glycoprotein acceptor) (uteroferrin): Kms below 20 µM
